Data as given in article PMC7782867 (2020).
Square brackets hold non-standard residues; d marks the D form. Ends that are not written are not given here. pS = N[C@@H](COP(=O)(O)O)C(=O)O

Legend:
[1] = target: T1, CRIPT (Drosophila melanogaster); experiment: ITC
T1 chain: YRQS[pS]T

[2] = target: T2, CRIPT (Drosophila melanogaster); experiment: ITC
T2 chain: GKKIMNTKNYKQSST

[3] = target: T3, CRIPT (Homo sapiens); experiment: ITC
T3 chain: YKQTSV

[4] = target: T4, CRIPT (Octopus bimaculoides); experiment: stopped-flow
T4 chain: YRQSSV

[5] = target: T5, CRIPT (Hydra vulgaris); experiment: stopped-flow
T5 chain: YRQTSC

[6] = target: T6, ancestral Eukaryota CRIPT; experiment: stopped-flow
T6 chain: YKQSSV

[7] = target: T3, CRIPT; experiment: stopped-flow
[8] = target: T7, CRIPT (Drosophila melanogaster); experiment: ITC
T7 chain: YRQSST

B1: DLG PDZ3 α3 PDZ3-α3 (protein)
chain: REPRTITIQKGPQGLGFNIVGGEDGQGIYVSFILAGGPADLGSELKRGDQLLSVNNVNLTHATHEEAAQALKTSGGVVTLLAQYRPEEYNRFEARI
[1]
  Kd: 40 µM
[2]
  Kd: 34 µM

B2: DLG4 PDZ3 PDZ3 (protein)
chain: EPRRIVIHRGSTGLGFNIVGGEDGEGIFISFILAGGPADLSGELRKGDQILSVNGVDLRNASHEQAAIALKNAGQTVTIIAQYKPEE
[3]
  Kd: 0.7 µM
[4]
  Kd: 1.24 µM
[5]
  Kd: 0.36 µM
[6]
  Kd: 2.18 µM
[7]
  Kd: 0.395 µM

B3: DLG PDZ3 PDZ3 (protein)
chain: EPRTITIQKGPQGLGFNIVGGEDGQGIYVSFILAGGPADLGSELKRGDQLLSVNNVNLTHATHEEAAQALKTSGGVVTLLAQYRPEEY
[8]
  Kd: 27 µM
[6]
  Kd: 0.67 µM
